Source: the supplement of paper PMC11246515
± gives the standard deviation of the averaged measurements.

Assay: total protein half-life in vivo (active degradation + dilution); higher = more stable protein
[1] = E. coli NCM3722 delta-clpP delta-lon delta-hslV, growth: N-lim chemostat, doubling time 6 h
[2] = E. coli NCM3722 delta-hslV, growth: N-lim chemostat, doubling time 6 h
[3] = E. coli NCM3722 delta-lon, growth: N-lim chemostat, doubling time 6 h
[4] = E. coli NCM3722 delta-smpB, growth: N-lim chemostat, doubling time 6 h
[5] = wild type E. coli NCM3722, growth: C-lim chemostat, doubling time 3 h
[6] = wild type E. coli NCM3722, growth: C-lim chemostat, doubling time 6 h
[7] = wild type E. coli NCM3722, growth: C-lim chemostat, doubling time 12 h
[8] = wild type E. coli NCM3722, growth: N-lim chemostat, doubling time 6 h
[9] = wild type E. coli NCM3722, growth: N-lim chemostat, doubling time 12 h
[10] = wild type E. coli NCM3722, growth: P-lim chemostat, doubling time 6 h
[11] = wild type E. coli NCM3722, growth: P-lim chemostat, doubling time 12 h
[12] = E. coli NCM3722 delta-clpP, growth: N-lim chemostat, doubling time 6 h

For “MNKSQLIDKIAAGADISKAAAGRALDAIIASVTESLKEGDDVALVGFGTFAVKERAARTGRNPQTGKEITIAAAKVPSFRAGKALKDAVN [P0ACF4]”, the “total protein half-life in vivo” value [1] was 7.01 ± 0.69 h, the “total protein half-life in vivo” value [2] was 5.94 ± 0.61 h and the “total protein half-life in vivo” value [3] was 6.96 ± 0.96 h. For the same sequence, the “total protein half-life in vivo” value [4] was 5.51 ± 0.24 h, the “total protein half-life in vivo” value [5] was 2.88 ± 0.054 h and the “total protein half-life in vivo” value [6] was 5.1 ± 0.35 h. For the same sequence, the “total protein half-life in vivo” value [7] was 7.44 ± 0.28 h, the “total protein half-life in vivo” value [8] was 5.035 ± 0.04 h and the “total protein half-life in vivo” value [9] was 10.813 ± 0.0038 h. For the same sequence, the “total protein half-life in vivo” value [10] was 4.6 ± 0.72 h and the “total protein half-life in vivo” value [11] was 10.8 ± 0.92 h.
In the case of “MRNKNIIMLLMSSLILSGCGPQPENKESQQQQPSTPTEQQVLAAQQAAIKEAEQSAAAAKALAQQEVQQYSDKQALQGRLQEAPTFARAAKAKATHIANPGTARYQQFDDNPVKQVAQNPLATFSLDVDTGSYANVRRFLNQGLLPPPDAVRVEEIVNYFPSDWDIKDKQSIPASKPIPFAMRYELAPAPWNEQRTLLKVDILAKDRKSEELPASNLVFLIDTSGSMISDERLPLIQSSLKLLVKELREQDNIAIVTYAGDSRIALPSISGSHKAEINAAIDSLDAEGSTNGGAGLELAYQQATKGFIKGGINRILLATDGDFNVGIDDPKSIESMVKKQRESGVTLSTFGVGNSNYNEAMMVRIADVGNGNYSYIDTLSEAQKVLNSEMRQMLITVAKDVKAQIEFNPAWVTEYRQIGYEKRQLRVEHFNNDNVDAGDIGAGKHITLLFELTLNGQKASIDKLRYAPDNKLAKSDKTKELAWLKIRWKYPQGKESQLVEFPLGPTINAPSEDMRFRAAVAAYGQKLRGSEYLNNTSWQQIKQWAQQAKGEDPQGYRAEFIRLIELADGVTDISQ”, the “total protein half-life in vivo” value [12] is reported as 4.02 ± 0.33 h and the “total protein half-life in vivo” value [4] is reported as 2.8393 ± 0.00061 h.
For “MPAENIVEVHHLKKSVGQGEHELSILTGVELVVKRGETIALVGESGSGKSTLLAILAGLDDGSSGEVSLVGQPLHNMDEEARAKLRAKHVGFVFQSFMLIPTLNALENVELPALLRGESSAESRNGAKALLEQLGLGKRLDHLPAQLSGGEQQRVALARAFNGRPDVLFADEPTGNLDRQTGDKIADLLFSLNREHGTTLIMVTHDLQLAARCDRCLRLVNGQLQEEA [P0A9T8]”, the “total protein half-life in vivo” value [1] was 6.26 h, the “total protein half-life in vivo” value [12] was 6.68 h and the “total protein half-life in vivo” value [2] was 5.9 h. The “total protein half-life in vivo” value [4] was 5.39 ± 0.17 h, the “total protein half-life in vivo” value [5] was 3.23 ± 0.07 h and the “total protein half-life in vivo” value [6] was 5.51 ± 0.64 h. For the same sequence, the “total protein half-life in vivo” value [7] was 11.2 ± 1.8 h, the “total protein half-life in vivo” value [8] was 7.11 h and the “total protein half-life in vivo” value [9] was 11.4 ± 0.56 h. For the same sequence, the “total protein half-life in vivo” value [10] was 5.46 ± 0.41 h and the “total protein half-life in vivo” value [11] was 11.6 h.
For “MDFSLTEEQELLLASIRELITTNFPEEYFRTCDQNGTYPREFMRALADNGISMLGVPEEFGGIPADYVTQMLALMEVSKCGAPAFLITNGQCIHSMRRFGSAEQLRKTAESTLETGDPAYALALTEPGAGSDNNSATTTYTRKNGKVYINGQKTFITGAKEYPYMLVLARDPQPKDPKKAFTLWWVDSSKPGIKINPLHKIGWHMLSTCEVYLDNVEVEESDMVGEEGMGFLNVMYNFEMERLINAARSTGFAECAFEDAARYANQRIAFGKPIGHNQMIQEKLALMAIKIDNMRNMVLKVAWQADQHQSLRTSAALAKLYCARTAMEVIDDAIQIMGGLGYTDEARVSRFWRDVRCERIGGGTDEIMIYVAGRQILKDYQNK [P0A9U8]”, the “total protein half-life in vivo” value [1] was 6.36 ± 0.59 h, the “total protein half-life in vivo” value [2] was 1.41 h and the “total protein half-life in vivo” value [4] was 1.03 h. The “total protein half-life in vivo” value [5] was 2.23 h, the “total protein half-life in vivo” value [6] was greater than 8 h and the “total protein half-life in vivo” value [7] was 2.25 h. For the same sequence, the “total protein half-life in vivo” value [9] was 2.165 ± 0.02 h, the “total protein half-life in vivo” value [10] was 0.772 h and the “total protein half-life in vivo” value [11] was 2.42 h.
In the case of “MSSLSQAASSVEKRTNARYWIVVMLFIVTSFNYGDRATLSIAGSEMAKDIGLDPVGMGYVFSAFSWAYVIGQIPGGWLLDRFGSKRVYFWSIFIWSMFTLLQGFVDIFSGFGIIVALFTLRFLVGLAEAPSFPGNSRIVAAWFPAQERGTAVSIFNSAQYFATVIFAPIMGWLTHEVGWSHVFFFMGGLGIVISFIWLKVIHEPNQHPGVNKKELEYIAAGGALINMDQQNTKVKVPFSVKWGQIKQLLGSRMMIGVYIGQYCINALTYFFITWFPVYLVQARGMSILKAGFVASVPAVCGFIGGVLGGIISDWLMRRTGSLNIARKTPIVMGMLLSMVMVFCNYVNVEWMIIGFMALAFFGKGIGALGWAVMADTAPKEISGLSGGLFNMFGNISGIVTPIAIGYIVGTTGSFNGALIYVGVHALIAVLSYLVLVGDIKRIELKPVAGQ”, the “total protein half-life in vivo” value [6] is reported as 5.06 h.
In the case of “MMITLRKLPLAVAVAAGVMSAQAMAVDFHGYARSGIGWTGSGGEQQCFQTTGAQSKYRLGNECETYAELKLGQEVWKEGDKSFYFDTNVAYSVAQQNDWEATDPAFREANVQGKNLIEWLPGSTIWAGKRFYQRHDVHMIDFYYWDISGPGAGLENIDVGFGKLSLAATRSSEAGGSSSFASNNIYDYTNETANDVFDVRLAQMEINPGGTLELGVDYGRANLRDNYRLVDGASKDGWLFTAEHTQSVLKGFNKFVVQYATDSMTSQGKGLSQGSGVAFDNEKFAYNINNNGHMLRILDHGAISMGDNWDMMYVGMYQDINWDNDNGTKWWTVGIRPMYKWTPIMSTVMEIGYDNVESQRTGDKNNQYKITLAQQWQAGDSIWSRPAIRVFATYAKWDEKWGYDYTGNADNNANFGKAVPADFNGGSFGRGDSDEWTFGAQMEIWW”, the “total protein half-life in vivo” value [1] is reported as 6.61 h, the “total protein half-life in vivo” value [12] is reported as greater than 8 h and the “total protein half-life in vivo” value [4] is reported as 6.71 ± 0.23 h. For the same sequence, the “total protein half-life in vivo” value [5] was 3.38 ± 0.6 h, the “total protein half-life in vivo” value [6] was 6.85 ± 1.6 h and the “total protein half-life in vivo” value [7] was greater than 16 h. The “total protein half-life in vivo” value [8] was greater than 8 h, the “total protein half-life in vivo” value [9] was greater than 16 h and the “total protein half-life in vivo” value [10] was 7.548 ± 0.042 h. For the same sequence, the “total protein half-life in vivo” value [11] was greater than 16 h.
For “MSHQHTTQTSGQGMLERVFKLREHGTTARTEVIAGFTTFLTMVYIVFVNPQILGVAGMDTSAVFVTTCLIAAFGSIMMGLFANLPVALAPAMGLNAFFAFVVVQAMGLPWQVGMGAIFWGAIGLLLLTIFRVRYWMIANIPVSLRVGITSGIGLFIGMMGLKNAGVIVANPETLVSIGNLTSHSVLLGILGFFIIAILASRNIHAAVLVSIVVTTLLGWMLGDVHYNGIVSAPPSVMTVVGHVDLAGSFNLGLAGVIFSFMLVNLFDSSGTLIGVTDKAGLADEKGKFPRMKQALYVDSISSVTGSFIGTSSVTAYIESSSGVSVGGRTGLTAVVVGLLFLLVIFLSPLAGMVPGYAAAGALIYVGVLMTSSLARVNWQDLTESVPAFITAVMMPFSFSITEGIALGFISYCVMKIGTGRLRDLSPCVIIVALLFILKIVFIDAH”, the “total protein half-life in vivo” value [1] was 6.67 ± 0.81 h, the “total protein half-life in vivo” value [12] was 6.107 ± 0.041 h and the “total protein half-life in vivo” value [2] was 5.86 ± 0.14 h. The “total protein half-life in vivo” value [3] was 5.93 h, the “total protein half-life in vivo” value [4] was 5.32 ± 0.85 h and the “total protein half-life in vivo” value [6] was 5.56 ± 0.18 h. For the same sequence, the “total protein half-life in vivo” value [7] was 12.7 ± 2.2 h, the “total protein half-life in vivo” value [8] was 6.02 ± 0.079 h and the “total protein half-life in vivo” value [10] was 5.99 ± 0.52 h. The “total protein half-life in vivo” value [11] was 11.2 ± 0.99 h.
